This note sets out measurements from the Immune Epitope Database (IEDB).

The target in this experiment is HLA-A*02:01. Description: IEDB peptide-MHC binding, cellular MHC/competitive/fluorescence; ≥ and ≤ were set here for values at or beyond the usual limits of such assays.
[1] abbreviates: source organism: Vaccinia virus WR.

Take SATVYGDKI: under setting [1], the IC50 – broadly, the concentration needed to halve the response being measured – came to 12.9 µM.

Sequence SIDRLSLNRT registered an IC50 under setting [1] of 5.1 µM. The same measure, in the same setting: next, SILRSIEGEL: 5.85 µM; SINSATESDA: 32.7 µM; SINVDSTDEL: 60.3 µM.

With SIPKETNELT, under setting [1], the IC50 was not below 70 µM.

With SIPLMKRLT, the IC50 under setting [1] was not below 70 µM. On the same count and under the same terms, as for SIRIKIDKL, the figure is 16.5 µM; as for SISIKLTDSL, 6.24 µM; as for SISKSNAKCI, not below 70 µM. Same read-out and setting: as for SIVVELEPSL, the figure is 7.93 µM; as for SLKRNAEGI, not below 70 µM.

The sequence SLSKRERQL gave an IC50 under setting [1] of 5.77 µM.

Sequence SLVSYIKTT showed an IC50 under setting [1] of 5.37 µM. The same measure, in the same setting: next, SMRLLHCVT: not below 70 µM. Consider SQHQHLAIM, for which the IC50 under setting [1] was 13.5 µM. SQLSVLSSIT gave an IC50 under setting [1] of 11.5 µM.

Under setting [1], SQSERDNYIT gave an IC50 not below 70 µM. On the same count and under the same terms, next, SQSTDIVCET: 26 µM. Still for that read-out and setting: as for STAVNEEWLT, the figure is 25.4 µM; as for STFSIGGVI, 23.5 µM; as for STHRKVASST, 51.5 µM. Under setting [1], STILNSIDI displayed an IC50 of 7.49 µM. On the same count and under the same terms, next, STLPNKSDV: not below 70 µM. STLPNKSDVL returned an IC50 under setting [1] of 46.5 µM. STMEDRPST came in with a half-maximal inhibitory concentration (IC50) under setting [1] of 32.6 µM. Under setting [1], STNFLANAST displayed an IC50 not below 70 µM. The same measure, in the same setting: as for STNGKIVMT, the figure is not below 70 µM; as for STPMTEYII, not below 70 µM. The same measure, in the same setting: as for STSITVNEV, the figure is 12.6 µM; as for STVASAQIHL, 14.2 µM; as for SVDCNKELM, 11.2 µM. Still for that read-out and setting: next, SVEKVGINLV: 50 µM. SVEPYTSNI: the IC50 under setting [1] is 17.3 µM. As for SVETITEKT, the IC50 under setting [1] is not below 70 µM.

Sequence SVFAASKQQM registered an IC50 under setting [1] not below 70 µM. Same read-out and setting: as for SVFYRGAENI, the figure is 20.8 µM. For the sequence SVNKFKFGAA, under setting [1], the IC50 was not below 70 µM. For SVVQALTSL, for the setting “source organism: Mammarenavirus machupoense”, the IC50 amounted to 9.24 µM.

As to SVVTLLCVL, the IC50 under setting [1] stood at 14.7 µM. Still for that read-out and setting: as for TAASPMLYQL, the figure is not below 70 µM. Same read-out and setting: as for TACNNTIII, the figure is 11.3 µM; as for TANVVFRYM, 19.3 µM. On the same count and under the same terms, as for TASGGKVLI, the figure is 37.2 µM. Turning to TASGGKVLIT, the IC50 under setting [1] was not below 70 µM. Under setting [1], TASSDSLQT gave an IC50 of 54.9 µM. Turning to TAVEHIPTM, the IC50 under setting [1] was found to be 15.9 µM. For the sequence TAVNEEWLT, under setting [1], the IC50 is 27 µM. Still for that read-out and setting: next, TAVNEEWLTA: 25 µM; TIDGVSKKNI: not below 70 µM. TIENALVASL showed an IC50 under setting [1] of 14.4 µM. Same read-out and setting: as for TIGNQLYLT, the figure is 18.3 µM. On the same count and under the same terms, next, TIIERSKKFI: 45.1 µM; TIKCSNLCT: 8.78 µM; TIKISPGIA: 37.4 µM. Under setting [1], TIQESFIRFT came in with an IC50 not below 70 µM. As for TIRVTSNGL, the IC50 under setting [1] stood at 23.5 µM.

Regarding TISMLIEVIL, the IC50 under setting [1] was not below 70 µM. On the same count and under the same terms, next, TLPNKSDVLI: 5.32 µM; TLPSIFLIIT: 9.73 µM. Still for that read-out and setting: next, TLQKVLHVT: 5.79 µM. On to TLSLSKQDI, for which the IC50 under setting [1] is 11.7 µM. Still for that read-out and setting: as for TLTGSPSST, the figure is 28.6 µM.

For the sequence TMDGDKLSKL, under setting [1], the IC50 is not below 70 µM. Consider TMKIFYKHI, for which the IC50 under setting [1] was not below 70 µM. For the sequence TMPTYKHLI, the concentration for half-maximal inhibition (IC50) under setting [1] was found to be 27.3 µM. With TMSTPMTEYI, under setting [1], the IC50 was 7.95 µM. In turn, TQHPDYAILA came in with an IC50 under setting [1] of 6.73 µM. For TTDNKITSI, the IC50 under setting [1] amounted to 11.5 µM. Still for that read-out and setting: next, TTLSRHIFM: 6.42 µM; TTSDYQDSDV: 11.9 µM. For TTSEVVDML, the concentration for half-maximal inhibition (IC50) under setting [1] was 6.04 µM. On the same count and under the same terms, next, TTSSREERVL: not below 70 µM; TTTSEVVDM: 10 µM; TVELMNLKEL: 50.6 µM. On the same count and under the same terms, as for TVMNNLSELT, the figure is 11.9 µM. Under setting [1], TVPTMNNAKL registered an IC50 of 41.7 µM.

Regarding TVRSIITDA, under setting [1], the IC50 stood at 10.2 µM. The same measure, in the same setting: as for TVSTIDGRI, the figure is not below 70 µM; as for TVSTIDGRIV, not below 70 µM. The same measure, in the same setting: as for TVTNLISET, the figure is 31.1 µM; as for TVTNLISETL, 16.6 µM. Same read-out and setting: next, VALTIMGVI: 8.94 µM. Sequence VANVVNHVLT registered a half-inhibitory concentration (IC50) under setting [1] not below 70 µM. The same measure, in the same setting: next, VAPMPTASTA: 25 µM. As to VARRKDQTA, the 50% inhibitory concentration (IC50) under setting [1] came out at 37.7 µM. Still for that read-out and setting: next, VATDPDADA: not below 70 µM. The same measure, in the same setting: next, VATDPDADAI: not below 70 µM; VAVAAASST: 13.5 µM. In the case of VIFLISVIV, the 50% inhibitory concentration (IC50) under setting [1] turned out to be 13.6 µM. Same read-out and setting: as for VIGASYISCT, the figure is 17.8 µM; as for VIKCMIDEGA, 9.87 µM; as for VISLLSMIT, 5 µM. Sequence VISLLSMITM yielded an IC50 under setting [1] of 10.8 µM.

As for VISPMGKLT, under setting [1], the IC50 turned out to be 8.49 µM.

As for VIYPNFSKA, the IC50 under setting [1] amounted to 14.2 µM.

Take VIYPNFSKAM: under setting [1], the IC50 was 17.8 µM. As for VLTTPGLNHA, the IC50 under setting [1] is not below 70 µM.
